Results taken from patent US20250043302A1, “MUTATED HYDROXYPHENYLPYRUVATE DIOXYGENASE POLYPEPTIDE, AND CODING GENE AND USE THEREOF” (BEIJING DABEINONG BIOTECHNOLOGY CO., LTD., priority 2021, published 2025).

B1: HPPDm-7-02: nucleotide sequence encoding AsHPPDm-A107-K351N-F372A-F383W with mutated C-terminal; vector DBN11788 (nucleic acid)
DNA: ATGCCACCTACTCCAGCTACAGCTACTGGTGCTGCTGCTGCTGCCGTTACTCCTGAGCACGCTGCCAGGTCATTCCCCAGGGTGGTTCGCGTGAACCCCAGATCTGATAGGTTCCCAGTTCTGAGCTTCCACCATGTTGAGCTGTGGTGCGCTGATGCTGCTTCTGCTGCTGGCAGGTTCTCTTTCGCTCTTGGTGCTCCACTCGCTGCTAGATCTGATCTGTCTACAGGAAATAGCGCTCATGCCTCACTCCTGCTTCGCTCAGGTGCTTTGGCCTTCCTCTTCACCGCTCCATATGCTCCCCCACCTCAGGAGGCTACTGCTGCTGCTACAGCCTCCATTCCAAGCTTCTCAGCTGATGCCGCTAGAACCTTCGCTGCTGCTCATGGACTTGCCGTGAGGTCTGTTGGTGTTCGCGTGGCTGATGCTGCTGAGGCTTTCAGAGTTTCCGTTGCCGGCGGAGCTAGGCCAGCTTTCGCTCCTGCTGATTTGGGACATGGTTTCGGCCTGGCTGAGGTTGAGCTTTACGGTGACGTGGTTCTCCGCTTCGTGTCTTACCCAGATGAGACTGACCTGCCTTTCCTTCCCGGCTTCGAGAGAGTTTCCTCTCCTGGTGCCGTGGATTACGGCCTGACAAGGTTCGACCACGTGGTTGGAAACGTTCCCGAGATGGCTCCAGTGATCGATTACATGAAGGGCTTCCTTGGATTCCATGAGTTCGCCGAGTTCACTGCTGAGGACGTGGGAACCACTGAGTCCGGTTTGAACTCTGTGGTTCTCGCCAACAATTCTGAGGCTGTTTTGCTCCCTCTGAATGAGCCTGTGCATGGAACCAAGAGGAGAAGCCAGATTCAAACTTACCTGGAGTACCACGGTGGCCCTGGAGTTCAGCATATCGCCCTTGCTTCTAATGATGTGTTGCGCACACTCAGAGAGATGCGCGCCAGAACCCCCATGGGAGGTTTCGAGTTCATGGCCCCACCACAGGCTAAGTACTACGAGGGCGTTAGAAGGATTGCTGGAGACGTGTTGAGCGAGGAGCAGATCAATGAGTGCCAAGAGCTGGGTGTTCTTGTGGATAGGGATGACCAGGGCGTTCTGCTTCAAATTGCCACTAAGCCAGTGGGCGACCGCCCTACATTCTGGCTTGAGATGATTCAAAGAATCGGCTGCATGGAGAAGGATGAGGTTGGACAGGAGTACCAAAAGGGCGGATGCGGTGGCTTCGGAAAGGGTAACTTCAGCGAGTTGTTCAAGTCAATCGAGGAGTATGAGAAGACCTTGGAGGCCAAGCAGCTCGTGGGTTGA
modifications: mutated C-terminus; HPPDm-7-02 Nucleotide Sequence
notes: vector DBN11788
B2: HPPDm-8-02: nucleotide sequence encoding AsHPPDm-A111T-K351N-F372A-F383W with mutated C-terminal; vector DBN11789 (nucleic acid)
DNA: ATGCCACCTACTCCAGCTACAGCTACTGGTGCTGCTGCTGCTGCCGTTACTCCTGAGCACGCTGCCAGGTCATTCCCCAGGGTGGTTCGCGTGAACCCCAGATCTGATAGGTTCCCAGTTCTGAGCTTCCACCATGTTGAGCTGTGGTGCGCTGATGCTGCTTCTGCTGCTGGCAGGTTCTCTTTCGCTCTTGGTGCTCCACTCGCTGCTAGATCTGATCTGTCTACAGGAAATAGCGCTCATGCCTCACTCCTGCTTCGCTCAGGTGCTTTGGCCTTCCTCTTCACCGCTCCATATGCTCCCCCACCTCAGGAGGCTGCTACTGCTGCTACTACAGCCTCCATTCCAAGCTTCTCAGCTGATGCCGCTAGAACCTTCGCTGCTGCTCATGGACTTGCCGTGAGGTCTGTTGGTGTTCGCGTGGCTGATGCTGCTGAGGCTTTCAGAGTTTCCGTTGCCGGCGGAGCTAGGCCAGCTTTCGCTCCTGCTGATTTGGGACATGGTTTCGGCCTGGCTGAGGTTGAGCTTTACGGTGACGTGGTTCTCCGCTTCGTGTCTTACCCAGATGAGACTGACCTGCCTTTCCTTCCCGGCTTCGAGAGAGTTTCCTCTCCTGGTGCCGTGGATTACGGCCTGACAAGGTTCGACCACGTGGTTGGAAACGTTCCCGAGATGGCTCCAGTGATCGATTACATGAAGGGCTTCCTTGGATTCCATGAGTTCGCCGAGTTCACTGCTGAGGACGTGGGAACCACTGAGTCCGGTTTGAACTCTGTGGTTCTCGCCAACAATTCTGAGGCTGTTTTGCTCCCTCTGAATGAGCCTGTGCATGGAACCAAGAGGAGAAGCCAGATTCAAACTTACCTGGAGTACCACGGTGGCCCTGGAGTTCAGCATATCGCCCTTGCTTCTAATGATGTGTTGCGCACACTCAGAGAGATGCGCGCCAGAACCCCCATGGGAGGTTTCGAGTTCATGGCCCCACCACAGGCTAAGTACTACGAGGGCGTTAGAAGGATTGCTGGAGACGTGTTGAGCGAGGAGCAGATCAATGAGTGCCAAGAGCTGGGTGTTCTTGTGGATAGGGATGACCAGGGCGTTCTGCTTCAAATTGCCACTAAGCCAGTGGGCGACCGCCCTACATTCTGGCTTGAGATGATTCAAAGAATCGGCTGCATGGAGAAGGATGAGGTTGGACAGGAGTACCAAAAGGGCGGATGCGGTGGCTTCGGAAAGGGTAACTTCAGCGAGTTGTTCAAGTCAATCGAGGAGTATGAGAAGACCTTGGAGGCCAAGCAGCTCGTGGGTTGA
modifications: mutated C-terminus; HPPDm-8-02 Nucleotide Sequence
notes: vector DBN11789

Tests used:
Type in all cases: in vivo
[1] = system: Arabidopsis thaliana T1 plants; assay: Topramezone tolerance of transgenic Arabidopsis thaliana T1 plants (spray, bleached leaf area grade, damage score); details: Table 10; for Classification and statistics of the grade of pesticide damage Grade 0: number of plants at grade 0; for Classification and statistics of the grade of pesticide damage Grade 1: number of plants at grade 1; for Classification and statistics of the grade of pesticide damage Grade 2: number of plants at grade 2; for Classification and statistics of the grade of pesticide damage Grade 3: number of plants at grade 3; for Scores: pesticide damage score
In short: (§1)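 T1 transformants selected by glufosinate; 18-day-old plants, with empty-vector and wild-type controls, sprayed with topramezone (25–200 g ai/ha), isoxaflutole (35–280 g ai/ha) or mesotrione (52.5–420 g ai/ha), water as 0×. Bleached leaf area fraction scored at 7 DAT as grades 0–3.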

[2] = system: Arabidopsis thaliana T1 plants; assay: Mesotrione tolerance of transgenic Arabidopsis thaliana T1 plants (spray, bleached leaf area grade, damage score); set-up: Scores: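 damage score 0-100 computed as Σ(N×S)/(T×M)×100 over grades 0-3 with higher meaning more damage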; details: Table 12; for Classification and statistics of the grade of pesticide damage Grade 0: number of plants at grade 0; for Classification and statistics of the grade of pesticide damage Grade 1: number of plants at grade 1; for Classification and statistics of the grade of pesticide damage Grade 2: number of plants at grade 2; for Classification and statistics of the grade of pesticide damage Grade 3: number of plants at grade 3; for Scores: pesticide damage score
In short: as §1

[3] = system: Arabidopsis thaliana T1 plants; assay: Isoxaflutole tolerance of transgenic Arabidopsis thaliana T1 plants (spray, bleached leaf area grade, damage score); details: Table 11; for Classification and statistics of the grade of pesticide damage Grade 0: number of plants at grade 0; for Classification and statistics of the grade of pesticide damage Grade 1: number of plants at grade 1; for Classification and statistics of the grade of pesticide damage Grade 2: number of plants at grade 2; for Classification and statistics of the grade of pesticide damage Grade 3: number of plants at grade 3; for Scores: pesticide damage score;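 on Scores: Weighted damage index from 0 to 100 where higher means more damage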
In short: as §1

| Molecule | Resistance evaluation ([1]; topramezone 100 g ai/ha (4×)) | Classification and statistics of the grade of pesticide damage Grade 0 ([1]; topramezone 100 g ai/ha (4×)) | Classification and statistics of the grade of pesticide damage Grade 1 ([1]; topramezone 100 g ai/ha (4×)) | Classification and statistics of the grade of pesticide damage Grade 2 ([1]; topramezone 100 g ai/ha (4×)) | Classification and statistics of the grade of pesticide damage Grade 3 ([1]; topramezone 100 g ai/ha (4×)) | Scores ([1]; topramezone 100 g ai/ha (4×)) | Resistance evaluation ([1]; topramezone 200 g ai/ha (8×)) | Classification and statistics of the grade of pesticide damage Grade 0 ([1]; topramezone 200 g ai/ha (8×)) | Classification and statistics of the grade of pesticide damage Grade 1 ([1]; topramezone 200 g ai/ha (8×)) | Classification and statistics of the grade of pesticide damage Grade 2 ([1]; topramezone 200 g ai/ha (8×)) | Classification and statistics of the grade of pesticide damage Grade 3 ([1]; topramezone 200 g ai/ha (8×)) | Scores ([1]; topramezone 200 g ai/ha (8×)) | Resistance evaluation ([2]; mesotrione 210 g ai/ha (2×)) | Classification and statistics of the grade of pesticide damage Grade 0 ([2]; mesotrione 210 g ai/ha (2×)) | Classification and statistics of the grade of pesticide damage Grade 1 ([2]; mesotrione 210 g ai/ha (2×)) | Classification and statistics of the grade of pesticide damage Grade 2 ([2]; mesotrione 210 g ai/ha (2×)) | Classification and statistics of the grade of pesticide damage Grade 3 ([2]; mesotrione 210 g ai/ha (2×)) | Scores ([2]; mesotrione 210 g ai/ha (2×)) | Resistance evaluation ([2]; mesotrione 420 g ai/ha (4×)) | Classification and statistics of the grade of pesticide damage Grade 0 ([2]; mesotrione 420 g ai/ha (4×)) | other results |
| --- | --- | --- | --- | --- | --- | --- | --- | --- | --- | --- | --- | --- | --- | --- | --- | --- | --- | --- | --- | --- | --- |
| B1 | Highly resistant | 16 | 0 | 0 | 0 | 0 | Highly resistant | 16 | 0 | 0 | 0 | 0 | Highly resistant | 16 | 0 | 0 | 0 | 0 | Highly resistant | 15 | Classification and statistics of the grade of pesticide damage Grade 1 ([2]; mesotrione 420 g ai/ha (4×)): 1; Classification and statistics of the grade of pesticide damage Grade 2 ([2]; mesotrione 420 g ai/ha (4×)): 0; Classification and statistics of the grade of pesticide damage Grade 3 ([2]; mesotrione 420 g ai/ha (4×)): 0; Scores ([2]; mesotrione 420 g ai/ha (4×)): 2; Resistance evaluation ([3]; isoxaflutole 140 g ai/ha (2×)): Highly resistant; Classification and statistics of the grade of pesticide damage Grade 0 ([3]; isoxaflutole 140 g ai/ha (2×)): 16; Classification and statistics of the grade of pesticide damage Grade 1 ([3]; isoxaflutole 140 g ai/ha (2×)): 0; Classification and statistics of the grade of pesticide damage Grade 2 ([3]; isoxaflutole 140 g ai/ha (2×)): 0; Classification and statistics of the grade of pesticide damage Grade 3 ([3]; isoxaflutole 140 g ai/ha (2×)): 0; Scores ([3]; isoxaflutole 140 g ai/ha (2×)): 0; Resistance evaluation ([3]; isoxaflutole 280 g ai/ha (4×)): Highly resistant; Classification and statistics of the grade of pesticide damage Grade 0 ([3]; isoxaflutole 280 g ai/ha (4×)): 16; Classification and statistics of the grade of pesticide damage Grade 1 ([3]; isoxaflutole 280 g ai/ha (4×)): 0; Classification and statistics of the grade of pesticide damage Grade 2 ([3]; isoxaflutole 280 g ai/ha (4×)): 0; Classification and statistics of the grade of pesticide damage Grade 3 ([3]; isoxaflutole 280 g ai/ha (4×)): 0; Scores ([3]; isoxaflutole 280 g ai/ha (4×)): 0 |
| B2 | Highly resistant | 16 | 0 | 0 | 0 | 0 | Highly resistant | 16 | 0 | 0 | 0 | 0 | Highly resistant | 16 | 0 | 0 | 0 | 0 | Highly resistant | 16 | Classification and statistics of the grade of pesticide damage Grade 1 ([2]; mesotrione 420 g ai/ha (4×)): 0; Classification and statistics of the grade of pesticide damage Grade 2 ([2]; mesotrione 420 g ai/ha (4×)): 0; Classification and statistics of the grade of pesticide damage Grade 3 ([2]; mesotrione 420 g ai/ha (4×)): 0; Scores ([2]; mesotrione 420 g ai/ha (4×)): 0; Resistance evaluation ([3]; isoxaflutole 140 g ai/ha (2×)): Highly resistant; Classification and statistics of the grade of pesticide damage Grade 0 ([3]; isoxaflutole 140 g ai/ha (2×)): 16; Classification and statistics of the grade of pesticide damage Grade 1 ([3]; isoxaflutole 140 g ai/ha (2×)): 0; Classification and statistics of the grade of pesticide damage Grade 2 ([3]; isoxaflutole 140 g ai/ha (2×)): 0; Classification and statistics of the grade of pesticide damage Grade 3 ([3]; isoxaflutole 140 g ai/ha (2×)): 0; Scores ([3]; isoxaflutole 140 g ai/ha (2×)): 0; Resistance evaluation ([3]; isoxaflutole 280 g ai/ha (4×)): Highly resistant; Classification and statistics of the grade of pesticide damage Grade 0 ([3]; isoxaflutole 280 g ai/ha (4×)): 16; Classification and statistics of the grade of pesticide damage Grade 1 ([3]; isoxaflutole 280 g ai/ha (4×)): 0; Classification and statistics of the grade of pesticide damage Grade 2 ([3]; isoxaflutole 280 g ai/ha (4×)): 0; Classification and statistics of the grade of pesticide damage Grade 3 ([3]; isoxaflutole 280 g ai/ha (4×)): 0; Scores ([3]; isoxaflutole 280 g ai/ha (4×)): 0 |
